Laboratory results published in publication PMC9473479.
Several values for one entry are separate records, joined by “and”; a condition that tells them apart may be missing. Equal values may be shown once.

What was measured:
[1] = target: S40-H StrepII-tagged at its C-terminus (murine SPD scaffold carrying EsxH in the collagen-like region, CRD replaced by the murine CD40L 115-260 ectodomain) (Mus musculus | Mycobacterium tuberculosis | murine) (UniProt P27548); assay: non-reducing SDS-PAGE and Western blot
[2] = target: S40-H StrepII-tagged at its C-terminus (murine SPD scaffold carrying EsxH in the collagen-like region, CRD replaced by the murine CD40L 115-260 ectodomain) (Mus musculus | Mycobacterium tuberculosis | murine) (UniProt P27548); assay: SEC; 50x-concentrated supernatant of LV::S40-H-StrepII-transduced HEK293T cells on Superose 6 HR 10/30, 50 mM phosphate buffer pH 7.5, 150 mM NaCl; calibrated with standard proteins; fractions analysed by Western blot in reducing conditions

S40-H StrepII-tagged at its C-terminus (murine SPD scaffold carrying EsxH in the collagen-like region, CRD replaced by the murine CD40L 115-260 ectodomain) (from UniProt P27548 115-260)
stoichiometry N [1]: 2 and 4 and 3 | stoichiometry N [2]: 2 and 3 and 4
